# Results as given in the DeepSol protein solubility set.
# Assay: soluble on expression in E. coli; label from the status in PepcDB or PDB records
row,Sequence,soluble on expression in E. coli
1,MCQATNGPSRVVTKKHRKFFERHLQLLPSSHQGHDVNRMAIIFYSISGLSIFDVNVSAKYGDHLGWMRKHYIKTVLDDTENTVISGFVGSLVMNIPHATTINLPNTLFALLSMIMLRDYEYFETILDKRSLARFVSKCQRPDRGSFVSCLDYKTNCGSSVDSDDLRFCYIAVAILYICGCRSKEDFDEYIDTEKLLGYIMSQQCYNGAFGAHNEPHSGYTSCALSTLALLSSLEKLSDKFKEDTITWLLHRQVSSHGCMKFESELNASYDQSDDGGFQGRENKFADTCYAFWCLNSLHLLTKDWKMLCQTELVTNYLLDRTQKTLTGGFSKNDEEDADLYHSCLGSAALALIEGKFNGELCIPQEIFNDFSKRCCF,soluble
2,MSLSYEYFPGFYDRLMDSELYDEWLEFSADFIGDAPKKVLDLACGTAEFALRLSFSGHQVTGVDLSKEMVAVAKEKVAAAEIDLPIIEQDMSKLALKQTFDVVTCFCDSLNYLETEQALEATIQAVSAHLEPNGLFLFDVHSVFKIEQGFKDYSYGDSDEEISTIWNSFPGEHPHSIEHELTFYILGEDDTYNRVDELHKERTYPIATYENLLKKFGFTKIDIYADFSHEKPNKTSERIFFAARKEGHHHHHH,soluble
3,MGSDKIHHHHHHMNTFPAVLIGGPPHSGKSVLTYLLTQYLRQRGIEHYVLRACPDGEGDWSQESTPDLVRLLRQKGAFDRTFVDRVCRDIEQRHLPLLVDVGGRPTLDQERIIQRCTHAIVLSATPQGMDEWRNRVEQYGLIIVAELHSELHGSDQIEVEKPVLRGVISGLERNAPTGGIVVEALANRLARLMHYDQAELVQQHLQRAPAELVVDLDRLARQMWVEATQRRWIPPDLPQILDSIPAKTPLAIYGRGPNWLYAALAGHTAPAPFSLFDPRLGWAQAQSLRRVPQPVADVIRWQTREEQDYTLLKAHLLEPYLDYDDLSALTVPRLDPQRGVVVSGKLPFWLLTSLIVTYHEHPWLAVIQPQLNPNSVIIFSRCEDYRPGNSIQVVLD,not soluble
4,MLYEKFEYNINNLIGNFGLSKIAIAVSGGSDSISLLYLANIWARKNNIELFVISVDHNLRPQSKQENYYIHTISSNLNRKYYNLSFDHQNNFSNLQERAREGRYDLMTNLCLELDVLVLLTAHHEDDYVENFCLRLERNSGIFGLSSSNIHWYNNIQIIRPLYNIPKSELVEYLVNHKIKWFEDESNLSDKYRRNIIRQKLFKEENYIKAEISLQQLKTNKLIEDELKPALISAIAEAVKIFEYGFTFLDLVKFDKFLNEVKAQIINFLLIMISGQSRSARFYSIAHILKLISQDINFKNTVHGCVIKRIQNELLIYREFGKKLPKSKILLDKSVIWDNRFCITKNQKTPDCVITYLSLADYKAIKKQLDLKHLKNLSCKNHNAILFTLPIIKILEKVIAIPHISYYDNDVWNFEVSFAPNFVSRFTHFC,not soluble
5,MGSDKIHHHHHHVTGSDTQLYPPMSTYLENHNIRYFNSFSAENLKSATPDLVVVGNAISRGNPDLEYALDQHMELISMPQLVRRELIGRHTSIVVAGTHGKTTTTSLVAWLLEAGGLLPGFLIGGIPENFGDGCRPSGLSEPGFFVTEGDEYDSAFFDKRSKFLHYRPDIAIINNVEFDHADIFDSLDDIKKSFRLLVNLVPSNGLLIVNADDPNSMEVSAKAFCRVETFGLNGNAEWTAADIATDTDGTSFTVVRDSEAIGRVKVPLFGNYNVMNALAATAAAIRAGVSFESVTRGLCSFKRPKRRMELVGEYAGGITLIEDFAHHPTAIRLTLGAIAEHYPGRRIIACFEPRSNTTSRNIFQHELSECFGDAAIVVLGKVNRPERYAPEERLDAALLCRELKANGKRVFAAGSENYPEDIVRFIEAEQQPGDVVVLLSNGSFSGLKEMLAESFQKNS,not soluble
6,MGMKFLNKKGWHTGSLRNIETVWKAEQKQEAEQKKLEELRLQILQERERSEFRALQEQAGLIPRQERLEFLYDSGLAVGKGSASGSGVSFQKEEQPLAKSEAGSSASEKPDQSAPGALFEEKAQSANDSWRKLHSDPLLLIRQREQEALAKIKNNPVKMALIRKSVEEKGKGKDGDTKEHKKKHKRKSGKHQKQSSSRQRSDSEEDSGEENNGRKSHHQKTSGTHDRHYERPRSDLEDESKGRESRDRHYEKRRSELDDGHKRRERHDTHYERRRSEMDDESKRRESRDNHYERRRSDLDDESKRRESHDKHFERQRSDLDDEYKRRESQDKRRRSDIDDEPKRRDARPNEKYRNRSPKGGVERENLKSYGQEDKKRKAEDLDSGKPNEYQNRRRKGGSKLSEEERAARLKQMQMDAEVHEEQRWTRLKKADETDAVEADKNKVSTGKSFLDDANKSVYGVEKGGSSTIEESVRRRSYYSQRGTAAEGNAFRR,not soluble
